Source: PMC10421740, “A universal deep-learning model for zinc finger design enables transcription factor reprogramming”

Experiments:
[1] = molecular target: T1, KLF6 reprogrammed with array Tet3 Rev (synthetic construct, UniProt Q99612 1-199); assay: Zn; HEK293T, 7x tetO minimal CMV GFP reporter
T1 chain: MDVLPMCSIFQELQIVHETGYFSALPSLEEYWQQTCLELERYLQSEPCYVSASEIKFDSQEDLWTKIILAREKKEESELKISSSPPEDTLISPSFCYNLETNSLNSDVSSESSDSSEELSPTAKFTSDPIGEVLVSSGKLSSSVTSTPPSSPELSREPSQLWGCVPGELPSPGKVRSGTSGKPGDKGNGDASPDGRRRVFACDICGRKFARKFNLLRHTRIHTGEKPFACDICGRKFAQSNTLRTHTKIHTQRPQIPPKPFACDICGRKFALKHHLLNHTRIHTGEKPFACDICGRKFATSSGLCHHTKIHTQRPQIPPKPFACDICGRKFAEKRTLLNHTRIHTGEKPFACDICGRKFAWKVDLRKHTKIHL

[2] = molecular target: T2, KLF6 reprogrammed with array Tet4 Rev (synthetic construct, UniProt Q99612 1-199); assay: Zn; HEK293T, 7x tetO minimal CMV GFP reporter
T2 chain: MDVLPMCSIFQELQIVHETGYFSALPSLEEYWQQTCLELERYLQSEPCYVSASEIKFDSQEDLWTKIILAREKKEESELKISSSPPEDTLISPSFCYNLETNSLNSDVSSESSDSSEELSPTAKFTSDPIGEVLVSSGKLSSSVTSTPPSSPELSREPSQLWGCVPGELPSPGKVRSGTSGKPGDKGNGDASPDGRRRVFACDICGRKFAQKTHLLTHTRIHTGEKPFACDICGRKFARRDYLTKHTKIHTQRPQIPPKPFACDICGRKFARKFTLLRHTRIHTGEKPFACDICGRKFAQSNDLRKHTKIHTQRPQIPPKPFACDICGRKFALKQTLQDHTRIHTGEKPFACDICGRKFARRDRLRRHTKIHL

[3] = molecular target: ZIM3 reprogrammed with array Tet3 Rev (synthetic construct, UniProt Q96PE6 1-166); assay: Zn; HEK293T, 7x tetO CMV eGFP reporter
[4] = molecular target: KLF6 reprogrammed with array CDKN1C_150 (synthetic construct, UniProt Q99612 1-199); assay: Zn; HEK293T, RT-qPCR 3 days after transfection
[5] = molecular target: ZFN pair 1BC_design + 1ED_design (synthetic construct, UniProt P14870;P14870 384-579;384-579); assay: Zn; U2OS eGFP disruption, 3 days after nucleofection; conditions: tags: N-terminal 3xFLAG and SV40 NLS (kept in the assay, left out here); copies: 1;1
[6] = molecular target: ZFN pair 1BC_selected + 1ED_selected (synthetic construct, UniProt P14870;P14870 384-579;384-579); assay: as above; conditions: tags: N-terminal 3xFLAG and SV40 NLS (kept in the assay, left out here); copies: 1;1
[7] = molecular target: ZIM3 reprogrammed with array DPH1_201 (synthetic construct, UniProt Q96PE6 1-166); assay: Zn; HEK293T, RT-qPCR 3 days after transfection
[8] = molecular target: ZIM3 reprogrammed with array DPH1_51 (synthetic construct, UniProt Q96PE6 1-166); assay: Zn; HEK293T, RT-qPCR 3 days after transfection
[9] = molecular target: ZIM3 reprogrammed with array DPH1_151 (synthetic construct, UniProt Q96PE6 1-166); assay: Zn; HEK293T, RT-qPCR 3 days after transfection
[10] = molecular target: ZIM3 reprogrammed with array DPH1_75 (synthetic construct, UniProt Q96PE6 1-166); assay: Zn; HEK293T, RT-qPCR 3 days after transfection
[11] = molecular target: ZIM3 reprogrammed with array DPH1_225 (synthetic construct, UniProt Q96PE6 1-166); assay: Zn; HEK293T, RT-qPCR 3 days after transfection
[12] = molecular target: T3, KLF6 reprogrammed with array CDKN1C_172 (synthetic construct, UniProt Q99612 1-199); assay: Zn; HEK293T, RT-qPCR 3 days after transfection
T3 chain: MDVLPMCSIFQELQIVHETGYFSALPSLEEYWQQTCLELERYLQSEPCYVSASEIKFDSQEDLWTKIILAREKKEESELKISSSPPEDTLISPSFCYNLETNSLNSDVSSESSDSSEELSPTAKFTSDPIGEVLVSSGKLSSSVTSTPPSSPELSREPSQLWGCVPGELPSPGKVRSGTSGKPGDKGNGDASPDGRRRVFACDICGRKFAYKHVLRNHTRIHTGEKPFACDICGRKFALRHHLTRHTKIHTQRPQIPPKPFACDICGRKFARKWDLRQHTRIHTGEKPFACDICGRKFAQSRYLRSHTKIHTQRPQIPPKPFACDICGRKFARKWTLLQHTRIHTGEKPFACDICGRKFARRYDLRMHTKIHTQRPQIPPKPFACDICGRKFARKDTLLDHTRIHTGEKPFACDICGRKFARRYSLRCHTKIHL

[13] = molecular target: KLF6 reprogrammed with array CDKN1C_102 (synthetic construct, UniProt Q99612 1-199); assay: Zn; HEK293T, RT-qPCR 3 days after transfection
[14] = molecular target: ZIM3 reprogrammed with array DPH1_126 (synthetic construct, UniProt Q96PE6 1-166); assay: Zn; HEK293T, RT-qPCR 3 days after transfection
[15] = molecular target: KLF6 reprogrammed with array CDKN1C_125 (synthetic construct, UniProt Q99612 1-199); assay: Zn; HEK293T, RT-qPCR 3 days after transfection
[16] = molecular target: KLF6 reprogrammed with array CDKN1C_125 F1-6 (synthetic construct, UniProt Q99612 1-199); assay: Zn; HEK293T, RT-qPCR 3 days after transfection
[17] = molecular target: ZIM3 reprogrammed with array DPH1_99 (synthetic construct, UniProt Q96PE6 1-166); assay: Zn; HEK293T, RT-qPCR 3 days after transfection
[18] = molecular target: T4, KLF6 reprogrammed with array CDKN1C_76 (synthetic construct, UniProt Q99612 1-199); assay: Zn; HEK293T, RT-qPCR 3 days after transfection
T4 chain: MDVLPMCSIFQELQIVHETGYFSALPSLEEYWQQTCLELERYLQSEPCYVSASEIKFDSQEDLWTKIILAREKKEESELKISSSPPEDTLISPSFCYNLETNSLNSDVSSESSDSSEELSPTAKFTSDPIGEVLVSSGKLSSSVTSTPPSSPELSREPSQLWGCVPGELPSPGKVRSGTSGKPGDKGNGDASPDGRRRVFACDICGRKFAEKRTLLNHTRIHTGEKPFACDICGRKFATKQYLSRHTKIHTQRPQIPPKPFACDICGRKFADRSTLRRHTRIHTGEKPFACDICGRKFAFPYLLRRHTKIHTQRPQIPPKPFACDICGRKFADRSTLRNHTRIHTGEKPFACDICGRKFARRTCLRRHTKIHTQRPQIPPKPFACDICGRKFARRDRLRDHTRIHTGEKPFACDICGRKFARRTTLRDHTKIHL

[19] = molecular target: ZFN pair 20BC_designed + 20ED_designed (synthetic construct, UniProt P14870;P14870 384-579;384-579); assay: Zn; U2OS eGFP disruption, 3 days after nucleofection; conditions: tags: N-terminal 3xFLAG and SV40 NLS (kept in the assay, left out here); copies: 1;1
[20] = molecular target: T5, ZFN pair 20BC_selected + 20ED_selected (synthetic construct, UniProt P14870;P14870 384-579;384-579); assay: as above; conditions: tags: N-terminal 3xFLAG and SV40 NLS (kept in the assay, left out here); copies: 1;1
T5 chain 1: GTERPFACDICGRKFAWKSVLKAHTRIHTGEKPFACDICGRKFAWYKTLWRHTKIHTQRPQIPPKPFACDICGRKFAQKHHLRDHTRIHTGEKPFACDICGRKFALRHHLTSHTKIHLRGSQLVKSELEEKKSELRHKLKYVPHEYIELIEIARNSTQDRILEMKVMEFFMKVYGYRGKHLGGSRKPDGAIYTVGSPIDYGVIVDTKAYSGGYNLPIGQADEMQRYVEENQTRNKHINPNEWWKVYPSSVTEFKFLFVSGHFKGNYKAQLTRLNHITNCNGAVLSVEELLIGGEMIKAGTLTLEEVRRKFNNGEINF
T5 chain 2: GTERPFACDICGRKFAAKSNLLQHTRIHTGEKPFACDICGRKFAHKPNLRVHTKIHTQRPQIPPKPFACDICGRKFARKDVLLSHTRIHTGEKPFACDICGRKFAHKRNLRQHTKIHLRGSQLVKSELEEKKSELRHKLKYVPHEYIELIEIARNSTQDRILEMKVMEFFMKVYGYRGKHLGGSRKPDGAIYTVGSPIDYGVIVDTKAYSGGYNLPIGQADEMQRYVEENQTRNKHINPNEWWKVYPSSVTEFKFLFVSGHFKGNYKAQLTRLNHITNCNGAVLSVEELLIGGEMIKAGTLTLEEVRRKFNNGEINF

[21] = molecular target: ZIM3 reprogrammed with array DPH1_24 (synthetic construct, UniProt Q96PE6 1-166); assay: Zn; HEK293T, RT-qPCR 3 days after transfection
[22] = molecular target: KLF6 reprogrammed with array CDKN1C_224 (synthetic construct, UniProt Q99612 1-199); assay: Zn; HEK293T, RT-qPCR 3 days after transfection

Chain of ZIM3 reprogrammed with array DPH1_126 (Q96PE6 other isoform, or with tags, fused parts or gaps): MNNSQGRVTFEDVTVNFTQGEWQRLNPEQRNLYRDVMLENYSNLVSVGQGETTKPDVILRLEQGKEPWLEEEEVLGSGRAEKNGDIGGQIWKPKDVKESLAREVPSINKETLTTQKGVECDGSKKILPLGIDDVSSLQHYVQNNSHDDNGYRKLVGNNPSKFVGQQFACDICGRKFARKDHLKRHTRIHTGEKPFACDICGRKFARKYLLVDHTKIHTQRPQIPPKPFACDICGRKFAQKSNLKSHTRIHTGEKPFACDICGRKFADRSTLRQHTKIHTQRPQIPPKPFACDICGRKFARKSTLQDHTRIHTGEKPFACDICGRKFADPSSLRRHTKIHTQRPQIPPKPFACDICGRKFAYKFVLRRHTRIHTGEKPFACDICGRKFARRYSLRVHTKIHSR
Chain of ZIM3 reprogrammed with array DPH1_75 (Q96PE6 other isoform, or with tags, fused parts or gaps): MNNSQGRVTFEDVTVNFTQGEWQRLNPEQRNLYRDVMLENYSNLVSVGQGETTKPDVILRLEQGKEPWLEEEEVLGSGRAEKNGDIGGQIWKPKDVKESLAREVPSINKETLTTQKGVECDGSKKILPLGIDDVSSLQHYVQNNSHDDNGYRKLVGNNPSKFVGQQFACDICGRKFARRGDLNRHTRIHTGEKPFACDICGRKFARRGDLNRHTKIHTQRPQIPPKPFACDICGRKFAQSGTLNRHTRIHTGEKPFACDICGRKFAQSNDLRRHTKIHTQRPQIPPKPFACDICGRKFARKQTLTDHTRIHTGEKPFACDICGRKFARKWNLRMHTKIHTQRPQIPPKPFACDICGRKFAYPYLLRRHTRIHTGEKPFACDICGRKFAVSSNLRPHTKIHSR
Chain of ZIM3 reprogrammed with array DPH1_151 (Q96PE6 other isoform, or with tags, fused parts or gaps): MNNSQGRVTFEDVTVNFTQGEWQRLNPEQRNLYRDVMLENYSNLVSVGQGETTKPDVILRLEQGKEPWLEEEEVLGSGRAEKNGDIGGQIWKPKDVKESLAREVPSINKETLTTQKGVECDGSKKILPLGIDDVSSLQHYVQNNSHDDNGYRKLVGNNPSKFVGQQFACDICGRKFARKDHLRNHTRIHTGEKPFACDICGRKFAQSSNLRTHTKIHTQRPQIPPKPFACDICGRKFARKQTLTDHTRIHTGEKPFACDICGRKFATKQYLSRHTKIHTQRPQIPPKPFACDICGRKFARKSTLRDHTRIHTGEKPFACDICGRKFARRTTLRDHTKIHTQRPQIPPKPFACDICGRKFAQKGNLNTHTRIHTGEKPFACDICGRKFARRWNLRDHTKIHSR
Chain of ZIM3 reprogrammed with array DPH1_99 (Q96PE6 other isoform, or with tags, fused parts or gaps): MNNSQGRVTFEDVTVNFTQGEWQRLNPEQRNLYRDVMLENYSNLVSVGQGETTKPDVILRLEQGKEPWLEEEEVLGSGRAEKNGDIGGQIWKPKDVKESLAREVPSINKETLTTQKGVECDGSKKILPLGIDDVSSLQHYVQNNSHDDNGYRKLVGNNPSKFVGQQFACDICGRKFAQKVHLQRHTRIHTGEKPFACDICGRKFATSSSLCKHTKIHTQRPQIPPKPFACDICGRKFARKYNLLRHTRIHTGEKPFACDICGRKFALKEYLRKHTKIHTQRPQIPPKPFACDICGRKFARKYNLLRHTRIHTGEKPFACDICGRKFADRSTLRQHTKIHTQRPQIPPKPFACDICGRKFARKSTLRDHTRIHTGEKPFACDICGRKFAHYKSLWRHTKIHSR
Chain of ZIM3 reprogrammed with array Tet3 Rev (Q96PE6 other isoform, or with tags, fused parts or gaps): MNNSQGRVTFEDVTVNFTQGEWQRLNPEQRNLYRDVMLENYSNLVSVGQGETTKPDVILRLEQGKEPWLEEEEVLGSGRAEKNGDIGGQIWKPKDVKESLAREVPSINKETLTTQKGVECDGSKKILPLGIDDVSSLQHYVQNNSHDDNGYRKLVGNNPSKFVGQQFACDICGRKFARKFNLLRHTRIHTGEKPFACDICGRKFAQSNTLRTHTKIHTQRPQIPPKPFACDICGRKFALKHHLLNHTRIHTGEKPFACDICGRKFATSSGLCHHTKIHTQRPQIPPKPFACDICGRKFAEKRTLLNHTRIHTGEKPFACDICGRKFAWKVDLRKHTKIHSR
Chain of ZIM3 reprogrammed with array DPH1_225 (Q96PE6 other isoform, or with tags, fused parts or gaps): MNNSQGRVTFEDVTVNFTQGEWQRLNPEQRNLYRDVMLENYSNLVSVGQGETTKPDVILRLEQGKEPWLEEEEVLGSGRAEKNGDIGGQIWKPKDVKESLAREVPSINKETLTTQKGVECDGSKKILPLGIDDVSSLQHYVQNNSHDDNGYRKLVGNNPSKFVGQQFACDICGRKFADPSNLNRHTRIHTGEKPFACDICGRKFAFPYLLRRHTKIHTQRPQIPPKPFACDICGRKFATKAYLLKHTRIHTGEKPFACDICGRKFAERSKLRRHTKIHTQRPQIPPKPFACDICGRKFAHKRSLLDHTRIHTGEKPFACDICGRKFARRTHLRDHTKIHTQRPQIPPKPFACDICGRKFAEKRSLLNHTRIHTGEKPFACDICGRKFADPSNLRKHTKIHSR
Chain of ZIM3 reprogrammed with array DPH1_51 (Q96PE6 other isoform, or with tags, fused parts or gaps): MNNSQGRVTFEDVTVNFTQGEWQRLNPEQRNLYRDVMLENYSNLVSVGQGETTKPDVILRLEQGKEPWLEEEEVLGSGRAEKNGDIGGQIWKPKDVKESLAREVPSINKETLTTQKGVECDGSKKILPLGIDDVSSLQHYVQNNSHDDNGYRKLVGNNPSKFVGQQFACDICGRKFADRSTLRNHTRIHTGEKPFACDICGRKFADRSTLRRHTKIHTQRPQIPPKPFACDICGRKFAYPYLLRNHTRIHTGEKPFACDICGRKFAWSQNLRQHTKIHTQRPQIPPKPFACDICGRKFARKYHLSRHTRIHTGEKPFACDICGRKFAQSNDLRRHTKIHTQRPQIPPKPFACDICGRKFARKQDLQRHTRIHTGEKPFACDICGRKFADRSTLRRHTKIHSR
Chain of ZIM3 reprogrammed with array DPH1_201 (Q96PE6 other isoform, or with tags, fused parts or gaps): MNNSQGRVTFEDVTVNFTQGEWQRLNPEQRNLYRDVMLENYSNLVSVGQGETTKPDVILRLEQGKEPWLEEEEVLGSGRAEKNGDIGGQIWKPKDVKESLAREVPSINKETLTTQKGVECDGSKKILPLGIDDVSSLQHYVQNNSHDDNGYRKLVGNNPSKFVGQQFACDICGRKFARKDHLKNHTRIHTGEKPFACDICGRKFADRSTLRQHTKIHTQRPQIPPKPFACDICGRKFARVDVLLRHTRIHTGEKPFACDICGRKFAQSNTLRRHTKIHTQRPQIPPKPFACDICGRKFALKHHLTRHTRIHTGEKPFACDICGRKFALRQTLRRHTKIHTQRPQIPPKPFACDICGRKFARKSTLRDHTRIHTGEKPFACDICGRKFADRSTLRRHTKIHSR
Chain of ZIM3 reprogrammed with array DPH1_24 (Q96PE6 other isoform, or with tags, fused parts or gaps): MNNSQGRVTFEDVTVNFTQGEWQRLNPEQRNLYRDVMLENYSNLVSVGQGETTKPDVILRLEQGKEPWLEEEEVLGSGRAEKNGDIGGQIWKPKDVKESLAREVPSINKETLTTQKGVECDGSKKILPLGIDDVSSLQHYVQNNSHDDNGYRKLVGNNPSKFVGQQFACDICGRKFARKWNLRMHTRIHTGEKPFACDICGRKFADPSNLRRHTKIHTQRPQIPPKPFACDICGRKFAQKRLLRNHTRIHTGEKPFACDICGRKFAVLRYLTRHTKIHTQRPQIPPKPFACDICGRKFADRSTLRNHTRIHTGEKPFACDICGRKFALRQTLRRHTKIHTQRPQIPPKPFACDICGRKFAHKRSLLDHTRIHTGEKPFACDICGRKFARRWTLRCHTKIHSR

B1: tetO (dsDNA)
DNA 1: TCTCCCTATCAGTGATAGAGAC
DNA 2: GTCTCTATCACTGATAGGGAGA
[1]
  binding signal: ~41000 mean GFP fluorescence (higher = more activity)
[2]
  binding signal: ~2500 mean GFP fluorescence (higher = more activity)
[3]
  binding signal: ~0.23 normalised eGFP fluorescence (lower = more activity, repressor)

B2: CDKN1C_150 (dsDNA)
DNA 1: GGCCGCGGCGGGGCGGGGCAGCGGGGCG
DNA 2: CGCCCCGCTGCCCCGCCCCGCCGCGGCC
[4]
  binding signal: ~9 relative expression (higher = more activity)

B3: eGFP site 1 (8 fingers) (dsDNA)
DNA 1: TGTTCACCGGGGTGGTGCCCATCCTGGTCGAGCT
DNA 2: AGCTCGACCAGGATGGGCACCACCCCGGTGAACA
[5]
  binding signal: ~35 % GFP-negative cells (higher = more activity)
[6]
  binding signal: ~53 % GFP-negative cells (higher = more activity)

B4: DPH1_201 (dsDNA)
DNA 1: ACCCCGAGCTGGTGACAGCGGCCCAAGG
DNA 2: CCTTGGGCCGCTGTCACCAGCTCGGGGT
[7]
  binding signal: ~0.43 relative expression (lower = more activity, repressor)

B5: DPH1_51 (dsDNA)
DNA 1: ACCTCTGCCAGGGCCGTCTCGGCCGCCC
DNA 2: GGGCGGCCGAGACGGCCCTGGCAGAGGT
[8]
  binding signal: ~0.61 relative expression (lower = more activity, repressor)

B6: DPH1_151 (dsDNA)
DNA 1: GAGAAAGGCGCCGCCGCCGTTAAAGGGG
DNA 2: CCCCTTTAACGGCGGCGGCGCCTTTCTC
[9]
  binding signal: ~0.7 relative expression (lower = more activity, repressor)

B7: DPH1_75 (dsDNA)
DNA 1: GAGGGCGCAGCGTTCCAGCACCCACCTC
DNA 2: GAGGTGGGTGCTGGAACGCTGCGCCCTC
[10]
  binding signal: ~0.62 relative expression (lower = more activity, repressor)

B8: DPH1_225 (dsDNA)
DNA 1: TACCCCTGGGCTCCGGCTGACAGCGACC
DNA 2: GGTCGCTGTCAGCCGGAGCCCAGGGGTA
[11]
  binding signal: ~0.62 relative expression (lower = more activity, repressor)

B9: CDKN1C_172 (dsDNA)
DNA 1: GGGGCGGCCGCCAATCGCCGTGGTGTTG
DNA 2: CAACACCACGGCGATTGGCGGCCGCCCC
[12]
  binding signal: ~3.3 relative expression (higher = more activity)

B10: CDKN1C_102 (dsDNA)
DNA 1: CGCCCCCGGTGGGTGTGCGCGCGGCCAA
DNA 2: TTGGCCGCGCGCACACCCACCGGGGGCG
[13]
  binding signal: ~2.5 relative expression (higher = more activity)

B11: DPH1_126 (dsDNA)
DNA 1: GGGGTTGGTCCTGTCCCTAACTTGGGGG
DNA 2: CCCCCAAGTTAGGGACAGGACCAACCCC
[14]
  binding signal: ~0.14 relative expression (lower = more activity, repressor)

B12: CDKN1C_125 (dsDNA)
DNA 1: GCCAATGGGCGGTGCGCGGGGGCCGGGC
DNA 2: GCCCGGCCCCCGCGCACCGCCCATTGGC
[15]
  binding signal: ~43 relative expression (higher = more activity)
[16]
  binding signal: ~16.5 relative expression (higher = more activity)

B13: DPH1_99 (dsDNA)
DNA 1: GCCCCGCCCCGAGATGCGAGGTCTGGAG
DNA 2: CTCCAGACCTCGCATCTCGGGGCGGGGC
[17]
  binding signal: ~0.68 relative expression (lower = more activity, repressor)

B14: CDKN1C_76 (dsDNA)
DNA 1: GCGCGCCCCGGCCGCGCGCCCCGCCCCG
DNA 2: CGGGGCGGGGCGCGCGGCCGGGGCGCGC
[18]
  binding signal: ~2 relative expression (higher = more activity)

B15: eGFP site 20 (8 fingers) (dsDNA)
DNA 1: GAAGGGCATCGACTTCAAGGAGGACGGCAACATC
DNA 2: GATGTTGCCGTCCTCCTTGAAGTCGATGCCCTTC
[19]
  binding signal: ~17 % GFP-negative cells (higher = more activity)
[20]
  binding signal: ~69 % GFP-negative cells (higher = more activity)

B16: DPH1_24 (dsDNA)
DNA 1: CTGCTCCGCTGCCCCGGATACGACCAGC
DNA 2: GCTGGTCGTATCCGGGGCAGCGGAGCAG
[21]
  binding signal: ~0.27 relative expression (lower = more activity, repressor)

B17: CDKN1C_224 (dsDNA)
DNA 1: GCTAATCGCGGCCGGGCCCGCGCGCACG
DNA 2: CGTGCGCGCGGGCCCGGCCGCGATTAGC
[22]
  binding signal: ~2.5 relative expression (higher = more activity)
